Test results as given in paper PMC11915502.

Target: His6-HppX3 (Escherichia coli 3R (chicken), …, UniProt A0A0F7IE22 1-151)
Assay: EMSA

B1: Bio-PactX (actX promoter probe) (dsDNA)
DNA 1: AAGTAACTAGCGGTACTAGAGTCGACCTGCAGGCATATAAAATAAGCGCA
DNA 2: TGCGCTTATTTTATATGCCTGCAGGTCGACTCTAGTACCGCTAGTTACTT
binding result: binds
